From doi:10.1101/2024.12.05.627070

T1: Rad51 (full length, recombinant) (S. cerevisiae), P25454
T1 chain: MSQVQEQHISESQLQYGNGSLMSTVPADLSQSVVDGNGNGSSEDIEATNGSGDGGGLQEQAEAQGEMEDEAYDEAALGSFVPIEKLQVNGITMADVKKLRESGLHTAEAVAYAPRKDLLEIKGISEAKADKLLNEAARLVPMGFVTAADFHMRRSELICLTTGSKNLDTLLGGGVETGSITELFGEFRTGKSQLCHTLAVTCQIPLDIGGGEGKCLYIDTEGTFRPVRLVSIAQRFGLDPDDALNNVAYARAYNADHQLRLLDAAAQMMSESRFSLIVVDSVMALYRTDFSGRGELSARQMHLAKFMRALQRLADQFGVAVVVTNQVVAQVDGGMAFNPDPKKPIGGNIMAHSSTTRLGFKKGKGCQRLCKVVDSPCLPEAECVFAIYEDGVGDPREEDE


How the values were obtained:
[1] = molecular target: Rad52 (295-408) (S. cerevisiae); test: SEC-SAXS
[2] = molecular target: Rad51 (in yeast cells) (S. cerevisiae) (UniProt P25454); test: co-IP
[3] = molecular target: T1, Rad51 (full length, recombinant) (S. …); test: SEC-SAXS; conditions: remark: other sources report otherwise

Row | loss of interaction (%) against WT Rad52 [2] [%] | Molecule | further results
1 |  | Rad51 (full length, recombinant) (from UniProt P25454 1-400) (natural protein) | stoichiometry N [1]: 1
2 | 30 | Rad52-K340E-FLAG (natural protein) | 
3 | 85 | Rad52-T349A-FLAG (natural protein) | 
4 |  | Rad51 (full length, recombinant), P25454 1-400 (natural protein) MSQVQEQHISESQLQYGNGSLMSTVPADLSQSVVDGNGNGSSEDIEATNGSGDGGGLQEQAEAQGEMEDEAYDEAALGSFVPIEKLQVNGITMADVKKLRESGLHTAEAVAYAPRKDLLEIKGISEAKADKLLNEAARLVPMGFVTAADFHMRRSELICLTTGSKNLDTLLGGGVETGSITELFGEFRTGKSQLCHTLAVTCQIPLDIGGGEGKCLYIDTEGTFRPVRLVSIAQRFGLDPDDALNNVAYARAYNADHQLRLLDAAAQMMSESRFSLIVVDSVMALYRTDFSGRGELSARQMHLAKFMRALQRLADQFGVAVVVTNQVVAQVDGGMAFNPDPKKPIGGNIMAHSSTTRLGFKKGKGCQRLCKVVDSPCLPEAECVFAIYEDGVGDPREEDE | stoichiometry N [3]: 4
